US20200038462A1, “METHODS AND COMPOSITIONS OF OTC CONSTRUCTS AND VECTORS” (priority 2018, published 2020)

B1: CO9-1: hOTC construct; CO9 re-optimized by GeneArt, SEQ ID NO:9 (nucleic acid)
DNA: GTCGACGCCGCCACCATGCTGTTTAATCTGAGAATCCTGCTGAACAATGCTGCTTTCCGCAATGGGCACAACTTTATGGTCCGAAACTTCCGATGTGGACAGCCTCTGCAGAACAAGGTGCAGCTGAAGGGCCGGGACCTGCTGACCCTGAAGAATTTCACAGGCGAGGAGATCAAATACATGCTGTGGCTGAGCGCCGATCTGAAGTTTAGGATCAAGCAGAAGGGCGAGTATCTGCCACTGCTGCAGGGCAAGTCCCTGGGCATGATCTTCGAGAAGCGGAGCACCCGGACAAGACTGAGCACCGAGACAGGATTCGCACTGCTGGGAGGACACCCATGCTTTCTGACAACACAGGACATCCACCTGGGCGTGAACGAGTCTCTGACCGACACAGCACGGGTGCTGAGCTCCATGGCAGATGCCGTGCTGGCCAGAGTGTACAAGCAGAGCGACCTGGATACCCTGGCCAAGGAGGCCTCCATCCCCATCATCAATGGCCTGTCTGACCTGTATCACCCAATCCAGATCCTGGCCGATTACCTGACCCTGCAGGAGCACTATTCTAGCCTGAAGGGCCTGACACTGAGCTGGATCGGCGACGGCAACAATATCCTGCACAGCATCATGATGTCCGCCGCCAAGTTTGGAATGCACCTGCAGGCAGCAACCCCAAAGGGATACGAGCCCGATGCCTCCGTGACAAAGCTGGCCGAGCAGTATGCCAAGGAGAACGGCACCAAGCTGCTGCTGACAAATGACCCACTGGAGGCAGCACACGGAGGAAACGTGCTGATCACCGATACATGGATCTCTATGGGCCAGGAGGAGGAGAAGAAGAAGCGGCTGCAGGCCTTCCAGGGCTACCAGGTGACCATGAAGACAGCCAAGGTGGCCGCCTCTGATTGGACCTTTCTGCACTGTCTGCCCCGGAAGCCTGAGGAGGTGGACGATGAGGTGTTCTATTCCCCTCGGAGCCTGGTGTTCCCAGAGGCAGAGAATCGCAAGTGGACAATCATGGCCGTGATGGTCTCCCTGCTGACTGACTACTCCCCACAGCTGCAGAAGCCCAAGTTTTGATAAGAATTC
B2: CO6-1: hOTC construct; CO6 re-optimized by GeneArt, SEQ ID NO:6 (nucleic acid)
DNA: GTCGACGCCGCCACCATGCTGTTCAACCTGCGGATCCTGCTGAACAACGCCGCCTTCAGAAACGGCCACAACTTCATGGTCCGAAACTTCAGATGCGGCCAGCCTCTGCAGAACAAGGTGCAGCTGAAGGGCAGAGATCTGCTGACCCTGAAGAACTTCACCGGCGAAGAGATCAAATACATGCTGTGGCTGAGCGCCGACCTGAAGTTCCGGATTAAGCAGAAGGGCGAGTACCTGCCACTGCTGCAGGGAAAGTCTCTGGGCATGATCTTCGAGAAGCGGAGCACCAGAACCAGACTGAGCACCGAGACAGGCTTTGCCCTGCTCGGAGGACACCCCTGCTTTCTGACAACACAGGATATCCACCTGGGCGTGAACGAGAGCCTGACCGATACAGCCAGAGTGCTGAGCAGCATGGCTGATGCCGTGCTGGCCAGAGTGTACAAGCAGAGCGATCTGGACACCCTGGCCAAAGAGGCCAGCATTCCCATCATCAACGGCCTGAGCGACCTGTATCACCCCATCCAGATCCTGGCCGACTACCTGACACTGCAAGAGCACTACAGCAGCCTGAAGGGACTGACCCTGTCTTGGATCGGCGACGGCAACAACATCCTGCACTCTATTATGATGAGCGCCGCCAAGTTCGGAATGCACCTGCAGGCCGCTACACCCAAGGGCTATGAGCCTGATGCCAGCGTGACAAAGCTGGCCGAGCAGTACGCCAAAGAGAACGGCACAAAGCTGCTGCTGACCAACGATCCCCTGGAAGCTGCCCACGGCGGCAATGTGCTGATCACCGATACCTGGATCTCTATGGGCCAAGAGGAAGAGAAGAAGAAGCGGCTGCAGGCCTTCCAGGGCTACCAAGTGACAATGAAGACCGCCAAGGTGGCCGCCAGCGATTGGACCTTTCTGCACTGCCTGCCTCGGAAGCCTGAAGAGGTGGACGACGAGGTGTTCTACAGCCCTAGAAGCCTGGTGTTCCCCGAGGCCGAGAACAGAAAGTGGACCATCATGGCTGTGATGGTGTCCCTGCTGACCGACTACTCTCCCCAGCTGCAGAAGCCCAAGTTCTGATAAGAATTC
B3: CO9-2: hOTC construct; CO9 re-optimized by IDT, SEQ ID NO:10 (nucleic acid)
DNA: GTCGACGCCGCCACCATGCTCTTCAATCTCCGAATACTCCTGAATAATGCGGCATTCAGAAATGGGCACAATTTTATGGTGCGAAATTTTCGATGTGGGCAGCCCTTGCAAAATAAAGTACAACTTAAAGGCAGAGATCTTCTTACGCTCAAAAACTTTACCGGCGAAGAGATTAAGTATATGTTGTGGCTGTCTGCTGACCTTAAATTCCGAATAAAACAGAAAGGCGAATACCTTCCGCTCCTCCAAGGGAAATCTCTTGGGATGATTTTCGAGAAGAGATCTACGCGCACGCGGCTTTCAACGGAAACTGGATTCGCACTCTTGGGCGGCCACCCATGTTTTCTGACTACTCAAGATATTCACTTGGGAGTAAATGAGTCACTTACTGACACGGCAAGAGTGCTCTCTAGCATGGCTGATGCAGTGCTGGCTAGAGTCTATAAACAATCCGACCTGGATACACTCGCCAAGGAAGCTTCAATACCAATAATCAACGGGTTGTCTGACTTGTACCACCCTATCCAAATCTTGGCCGATTATTTGACACTCCAGGAACACTACTCAAGTCTGAAGGGACTTACGCTTAGCTGGATAGGTGATGGTAACAACATCCTTCATAGCATTATGATGTCAGCCGCCAAATTCGGCATGCATCTGCAAGCAGCGACTCCCAAGGGCTATGAGCCTGATGCCTCAGTCACCAAACTGGCGGAGCAGTACGCTAAAGAGAATGGGACGAAGCTTTTGCTGACGAACGATCCCCTGGAGGCGGCTCACGGGGGAAATGTGCTTATCACGGATACCTGGATAAGTATGGGGCAGGAGGAAGAAAAAAAAAAGCGATTGCAAGCCTTTCAAGGTTACCAGGTTACAATGAAAACTGCGAAAGTCGCCGCATCTGACTGGACTTTTCTGCACTGTCTTCCGAGAAAGCCGGAAGAGGTGGACGACGAAGTGTTCTACTCTCCGCGCTCTCTCGTGTTTCCTGAAGCAGAGAACCGAAAGTGGACCATAATGGCGGTAATGGTCAGCCTCTTGACTGATTATTCCCCTCAGCTGCAGAAGCCAAAGTTTTGATAAGAATTC

Test system: HUH7 hepatocellular carcinoma cell line
Experiment: OTC protein expression in transfected HUH7 cells, Western blot
Format: cell-based, human
Conditions: FIGS. 14-15
Excerpt: The wt-hOTC was codon-optimized (CO) with different algorithms. The optimization process is aimed at improving translation and stability of the OTC mRNA by changing the nucleotide sequence while keeping the amino acid primary sequence unvaried. The wild-type OTC cDNA sequence and the codon-optimized (CO) LW4 sequence from WO 2015/138357 patent A2 (Wang L., Wilson J. M.) were also synthesized, to be used as comparison control (CO1). The nucleotide sequence of the different CO cDNAs differs with a range of 30-20% from the WT cDNA sequence. The vectors were then packaged into the AAV8 serotype and used to transduce Huh7 cells. Huh7 cells, co-transfected with the OTC constructs and the pGG2-eGFP plasmid (to normalize for transfection efficiency), were used to generate total RNA and proteins. mRNA, protein, and activity levels were analyzed using qRT-PCR and Western blotting.
The human hepatocellular carcinoma cell line HUH7 was used to evaluate the expression levels of AAV8-hOTC-CO constructs. The AAV8-hOTC-CO1 (C01), AAV8-hOTC-CO2 (CO2), AAV8-hOTC-CO3 (CO3), AAV8-hOTC-006 (CO6), AAV8-hOTC-CO7 (CO7), AAV8-hOTC-009 (CO9) construct plasmids, together with a pGFP plasmid as an internal control, were transiently co-transfected in HUH7 cells with Lipofectamine (Lipofectamine 2000, Thermo Fisher Scientific). Twenty-four hours post-transfection, total protein lysates were prepared and analyzed for OTC expression by Western blot analysis.

Molecule | OTC protein expression levels compared to hOTC-wt (in words)
B1 | significantly reduced
B2 | significantly reduced
B3 | significantly reduced
